This passage reports IC50 of inhibition of TGFβ1 activity in HEK-Blue TGFβ reporter cells (QUANTI-Blue OD, EC50 of CTLL-2 cell proliferation (WST1, absorbance and EC50 of 32Dβ cell proliferation (WST1, absorbance results from patent US20250066500A1.

What all share (experiment): cell-based or functional assay
For one assay, the target named is TGFβ1 (R&D systems) (UniProt P01137).
Assay [1] deals with IL-2Rα, IL-2Rβ and common γ chain on CTLL-2 cells.
Assay [2] addresses IL-2Rβ and common γ chain on 32Dβ cells.

Sequence of UniProt P01137 (P01137 279-390 limits assumed): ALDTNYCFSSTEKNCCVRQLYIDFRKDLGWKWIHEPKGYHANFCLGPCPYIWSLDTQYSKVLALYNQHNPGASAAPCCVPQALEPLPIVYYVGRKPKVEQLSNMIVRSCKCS

On to TGFR-Fc (R&D Systems) (Fc fusion), for which, in the assay with TGFβ1 (R&D systems), the IC50 of inhibition of TGFβ1 activity in HEK-Blue TGFβ reporter cells (QUANTI-Blue OD at 620-655 nM) was 0.461 nM.
In the case of “recombinant IL2 (Proleukin) (from UniProt P60568 22-153) (ligand)”, the EC50 of CTLL-2 cell proliferation (WST1, absorbance at 450 nM) in assay [1] was found to be 0.253 nM. This substance had an EC50 of 32Dβ cell proliferation (WST1, absorbance at 450 nM) in assay [2] of 0.0655 nM.
In assay [1], “recombinant IL-2 (from UniProt P60568 21-153) (ligand)” yielded an EC50 of CTLL-2 cell proliferation (WST1, absorbance at 450 nM) of 0.548 nM. Besides, in assay [2], the EC50 of 32Dβ cell proliferation (WST1, absorbance at 450 nM) worked out at 0.14 nM.
“recombinant IL-15 (from UniProt P40933 49-162) (ligand)”: the EC50 of 32Dβ cell proliferation (WST1, absorbance at 450 nM) in assay [2] amounted to 0.0106 nM.
